± gives the uncertainty stated by the source.
Test: self-splicing fitness, log relative to wild type (ln ratio); higher = more splicing; Tetrahymena group I intron in knt gene, E. coli kanamycin selection, DiMSum; sequences stand for … in CUCUCU…GGAGGGAAAAGUUAUCAGGCAUGCACCUGGUAGCUAGUCUUUAAACCAAUAGAUUGCAUCGGUUUAAAAGGCAAGACCGUCAAAUUGCGGGAAAGGGGUCAACAGCCGUUCAGUACCAAGUCUCAGGGGAAACUUUGAGAUGGCCUUGCAAAGGGUAUGGUAAUAAGCUGACGGACAUGGUCCUAACCACGCAGCCAAGUCCUAAGUCAACAGAUCUUCUGUUGAUAUGGAUGCAGUUCACAGACUAAAUGUCGGUCGGGGAAGAUGUAUUCUUCUCAUAAGAUAUAGUCGGACCUCUCCUUAAUGGGAGCUAGCGGAUGAAGUGAUGCAACACUGGAGCCGCUGGGAACUAAUUUGUAUGCGAAAGUAUAUUGAUUAGUUUUGGAGUACUCGUGGUCG
Outline: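 Six replicate transformations of E. coli BL21(DE3) with a pET-22b(+) library were grown overnight at 37°C or 30°C. The library randomised all eight P1ex-region intron nucleotides, the intron lying in the knt kanamycin-resistance gene, and plates were LB agar with or without 25 μg/mL kanamycin plus 100 μg/mL carbenicillin, 50 μM IPTG and 0.2% rhamnose. Pooled colonies were amplicon-sequenced on an Illumina HiSeq 2500, and fitness is the DiMSum error-weighted combination of wild-type-normalised replicate fold changes, kanamycin versus none.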

Sequence | self-splicing fitness (ln) (30 °C) | self-splicing fitness (ln) (37 °C)
AGAAAGCAAUAUUACGACGG | -2.82 ± 0.24 | -0.965 ± 0.29
GGUAAGCAAUAUUACGUCAA | -1.9 ± 0.26 | -1.62 ± 0.2
GUAGAGCAAUAUUACGGAGU | -2.27 ± 0.23 | -1.61 ± 0.18
CCACAGCAAUAUUACGCGAG | -1.27 ± 0.076 | -0.902 ± 0.083
CUCGAGCAAUAUUACGGAGC | -3.66 ± 0.26 | -3.22 ± 0.3
CAUGAGCAAUAUUACGAGUC | -4.56 ± 0.28 | -3.27 ± 0.22
UGCAAGCAAUAUUACGCCAU | -4.18 ± 0.42 | -1.87 ± 0.29
GUCCAGCAAUAUUACGGGGG | -2.01 ± 0.1 | -1.55 ± 0.14
CAUGAGCAAUAUUACGAAUC | – | -2.57 ± 0.42
CCGUAGCAAUAUUACGUAGU | -3.13 ± 0.19 | -3.05 ± 0.33
CGAGAGCAAUAUUACGAAGG | -3.4 ± 0.22 | -2.69 ± 0.32
UCGCAGCAAUAUUACGCAGC | – | -2.1 ± 0.45
CUCCAGCAAUAUUACGUAUU | -4.45 ± 0.15 | -3.21 ± 0.18
UCCCAGCAAUAUUACGCUUG | -3.31 ± 0.15 | -2.4 ± 0.19
AUGAAGCAAUAUUACGCAGA | -1.63 ± 0.12 | -0.868 ± 0.1
CGCCAGCAAUAUUACGGCAC | -2.37 ± 0.1 | -1.04 ± 0.097
CAAUAGCAAUAUUACGGCUG | -0.286 ± 0.084 | -0.379 ± 0.098
CAGAAGCAAUAUUACGUCCU | -1.94 ± 0.18 | -0.858 ± 0.16
CACUAGCAAUAUUACGGACU | -2.87 ± 0.18 | -1.13 ± 0.14
GAAAAGCAAUAUUACGCUAC | -2.67 ± 0.27 | -2.37 ± 0.29
UGACAGCAAUAUUACGGUAG | -0.921 ± 0.067 | -0.41 ± 0.074
ACCCAGCAAUAUUACGUGGA | -0.54 ± 0.048 | 0.15 ± 0.057
GCCCAGCAAUAUUACGGAGG | -4.2 ± 0.15 | -2.51 ± 0.13
AGUAAGCAAUAUUACGGGAC | -3.47 ± 0.26 | -2.45 ± 0.26
GUCCAGCAAUAUUACGGGCA | -2.25 ± 0.21 | -1.85 ± 0.18
ACCUAGCAAUAUUACGAUUC | -1.72 ± 0.083 | -0.58 ± 0.097

Sequence | self-splicing fitness (ln) (30 °C) | self-splicing fitness (ln) (37 °C)
UAUCAGCAAUAUUACGGGCU | -2.72 ± 0.21 | -2.23 ± 0.3
CUGAAGCAAUAUUACGGAAG | -1.37 ± 0.096 | -0.636 ± 0.12
ACCCAGCAAUAUUACGGCUG | -3.68 ± 0.2 | -2.06 ± 0.18
UCCUAGCAAUAUUACGCCUA | -2.01 ± 0.41 | –
CCACAGCAAUAUUACGUCGG | -3.14 ± 0.12 | -1.95 ± 0.18
UUAAAGCAAUAUUACGGGCC | -1.7 ± 0.21 | -1.25 ± 0.28
CCCCAGCAAUAUUACGUCUU | -3.9 ± 0.12 | -2.04 ± 0.12
ACAAAGCAAUAUUACGGGGA | -2.95 ± 0.14 | -1.05 ± 0.088
CUCAAGCAAUAUUACGCAAU | -3.56 ± 0.31 | -1.53 ± 0.32
AUCGAGCAAUAUUACGGCGG | -2.61 ± 0.14 | -1.36 ± 0.14
GGUCAGCAAUAUUACGCUGC | -1.88 ± 0.25 | -3.17 ± 0.47
CCAUAGCAAUAUUACGCGUC | -3.04 ± 0.33 | -4.21 ± 0.46
AGGUAGCAAUAUUACGCCUG | -0.743 ± 0.017 | -0.212 ± 0.035
UUCUAGCAAUAUUACGGUUA | -1.7 ± 0.11 | -0.789 ± 0.093
CUCUAGCAAUAUUACGUAUU | -2.14 ± 0.13 | -3.57 ± 0.25
ACUGAGCAAUAUUACGUUUU | -4.25 ± 0.26 | -2.07 ± 0.18
CAGUAGCAAUAUUACGGUUG | -1.52 ± 0.065 | -0.838 ± 0.083
GUUCAGCAAUAUUACGCAAA | -0.717 ± 0.17 | -0.625 ± 0.18
CCUCAGCAAUAUUACGCUUU | -3.07 ± 0.14 | -2.79 ± 0.21
GGCUAGCAAUAUUACGCUUG | -3.03 ± 0.19 | -2.19 ± 0.19
CACGAGCAAUAUUACGUUAA | -3.25 ± 0.22 | -2.86 ± 0.22
CGGUAGCAAUAUUACGGCGC | -2.04 ± 0.23 | -1.95 ± 0.24
AUCUAGCAAUAUUACGGUAA | -0.976 ± 0.12 | -0.736 ± 0.14
AACCAGCAAUAUUACGCUUA | -0.415 ± 0.046 | -0.0597 ± 0.055
GGGAAGCAAUAUUACGGCGC | -2.22 ± 0.1 | -1.1 ± 0.053
GCAGAGCAAUAUUACGAUUG | -4.02 ± 0.28 | -2.95 ± 0.23

Sequence | self-splicing fitness (ln) (30 °C) | self-splicing fitness (ln) (37 °C)
AGCAAGCAAUAUUACGUGAG | -2.58 ± 0.087 | -1.44 ± 0.089
UCACAGCAAUAUUACGAAAG | -3.82 ± 0.25 | -2.73 ± 0.23
AUAUAGCAAUAUUACGGGGC | -3.4 ± 0.43 | -2.48 ± 0.32
AUACAGCAAUAUUACGCAGA | -1.49 ± 0.13 | -1.51 ± 0.1
CCGCAGCAAUAUUACGGCCA | -4.11 ± 0.31 | -2.51 ± 0.26
GUUAAGCAAUAUUACGUGCA | -1.44 ± 0.1 | -0.144 ± 0.11
AGGUAGCAAUAUUACGGCCA | 0.159 ± 0.018 | 0.165 ± 0.037
UAUCAGCAAUAUUACGGAAU | -2.23 ± 0.1 | -1.27 ± 0.12
UAACAGCAAUAUUACGCCUU | -1.48 ± 0.074 | -0.968 ± 0.094
GGGAAGCAAUAUUACGAGGG | -4.09 ± 0.24 | -2.67 ± 0.19
AAAAAGCAAUAUUACGCCUC | – | -1.18 ± 0.22
CGUAAGCAAUAUUACGUCCC | -3.09 ± 0.38 | -1.21 ± 0.29
UUCGAGCAAUAUUACGGCUA | -1.51 ± 0.38 | -0.029 ± 0.37
CACAAGCAAUAUUACGACGG | -0.279 ± 0.071 | 0.557 ± 0.083
GUAGAGCAAUAUUACGCUCC | -1.72 ± 0.36 | –
GGGAAGCAAUAUUACGGCGA | -0.443 ± 0.12 | 0.0664 ± 0.12
CGCGAGCAAUAUUACGGACG | – | -1.75 ± 0.42
ACGUAGCAAUAUUACGGUCG | -1.23 ± 0.093 | -0.666 ± 0.12
CCUGAGCAAUAUUACGCCCU | – | -1.73 ± 0.33
AUGGAGCAAUAUUACGCAGU | -3.57 ± 0.37 | -3.17 ± 0.37
AAAGAGCAAUAUUACGUCAU | -2.38 ± 0.37 | -2.45 ± 0.35
ACUCAGCAAUAUUACGUUUU | -2.1 ± 0.048 | -0.817 ± 0.061
AUUUAGCAAUAUUACGUCCA | -0.944 ± 0.15 | -0.558 ± 0.27
GAUAAGCAAUAUUACGCUUC | – | -3.04 ± 0.29
CGCCAGCAAUAUUACGAGAC | -3.23 ± 0.33 | -3.54 ± 0.46

Reference: the supplement of paper PMC7877785
